The results in this text go back to PMC3875647 (Worm, 2013).

In general, stoichiometry N refers to the number of molecules, sites or subunits per partner or assembly.

The data set concerns the molecule itself. The data set can be described thus: SEC-MALS.

B1: MBP-AA-SAS-5 aa82-260 (domain or fragment, C. elegans, UniProt Q20010 82-260, looked up)
chain: HPALRQKTVAFGKTVNVSQTVEGTSRNSKKVLASTMSAQNTTTTEEQAAENWRDAMKTELQTIRTEIQEETARRQEELNAQNLVKMQELMSNFFQKITIPKQQAIEPVEKDKENFHESPRQSRQQKPASKIASAREVIKRDGVIPPEALTIIEQRLRSDPMFRQQIDNVLADAECDANR
Consider B1, for which the “stoichiometry N” value was 4.

B2: MBP-AA-SAS5-NTD (SAS-5 residues 1–260 fused to MBP with a two-alanine linker) (domain or fragment, C. elegans, UniProt Q20010 1-260, looked up)
chain: MNNYDDLPCSIYFKKPTVQEFVDQPRVFEDSEVPAFQEVLQLPQERTKPPVPSTQPIVAAVEVAKKKSCLSAPKPRKEPPSHPALRQKTVAFGKTVNVSQTVEGTSRNSKKVLASTMSAQNTTTTEEQAAENWRDAMKTELQTIRTEIQEETARRQEELNAQNLVKMQELMSNFFQKITIPKQQAIEPVEKDKENFHESPRQSRQQKPASKIASAREVIKRDGVIPPEALTIIEQRLRSDPMFRQQIDNVLADAECDANR
B2: the “stoichiometry N” value turned out to be 4.
